Assay [1] addresses T1, SARS-CoV two-proline stabilized S trimer (S-2P) (SARS-CoV (GenBank NC_004718.3), UniProt P59594, stabilised).
T1 construct: also called SARS-CoV S-2P
Description: SPR. Conditions: both partners purified.

Assay [2] concerns the target T1, SARS-CoV two-proline stabilized S …. Description: SPR. Particulars: both partners purified. The source holds these as a separate data set.

B1: 7D6 monoclonal antibody (antibody, V domains shown)
VH: EVQLQQSGAELVRPGASVKLSCTASGFNIKDTYIHWVKQRPEQGLEWIGRIDPGDGDTEYDPSFQGKATITADTSSNTAYLELSSLTSEDTAVYYCTRFYDYVDYGMDYWGQGTSVTVSS
VL: DIQMTQSPASLSASVGETVTITCRASGNIHNYLAWYQQKQGKSPQLLVYNAKTLADGVPSRFSGSGSGTQYSLKINSLQPEDFGSYYCQHFWSTPPWTFGGGTKLEVK
notes: also called mAb 7D6; source: mouse hybridoma, ascites, purified (protein A agarose); copies: 2 + 2
For the molecule B1, binding in assay [1] was put at a Kd of 5.88 nM. In assay [2], this molecule registered a Kd of 5.04 nM, a koff of 0.000241 s⁻¹ and a kon of 47800 M⁻¹ s⁻¹.

B2: 6D6 monoclonal antibody (antibody, V domains shown)
VH: EVQLQQSGAELVKPGASVKLSCTTSGFNIIDTYMHWVKQRPEEGLEWIGGIDPVNGNSEYDPKFQDKATITADTSSNTAYLHLSRLTSEDTAVYYCASAHYYGSSSSFPYWGQGTLVTVSA
VL: DIVMTQSQKFMSTSVGDRVSVTCKASQNVGTHVAWYQQKPGQSPKALIYSASYRYSGVPDRFTGSGVGTDFTLTITNVQSEDLAEYFCQQYNSYFTFGSGTKLEIK
notes: also called mAb 6D6; source: mouse hybridoma, ascites, purified (protein A agarose); copies: 2 + 2
On to B2, for which, in assay [2], the Kd was found to be 2.14 nM, the koff worked out at 5.56e-05 s⁻¹ and the association rate constant (kon) was 30600 M⁻¹ s⁻¹.

What is called Kd is the constant that tells how readily two partners part at equilibrium. For orientation: koff means the rate constant with which the complex falls apart. The low end stands for slow dissociation, the high end for fast dissociation. The term kon denotes a measure of how fast the partners come together. Low values mean slower complex formation, high ones faster complex formation.

The values above are taken from PMC8476643 (Nature Communications, 2021).
